Assay: soluble fraction after stress (log2 fold change); higher = more stays soluble; pooled small domains, quantitative proteomics
Conditions: stress: 75 degC
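Also: 20 min heating vs room temperature control held 20 min.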

HMEGNWGLWAKVPNRFAALTTDKDSALRRFKSKEDGEAWMASHGLKPERFDVLEIPADYKPA
soluble fraction (log2): 0.435

HMKMSVKNEIISLLEKNRDTSISGQVIADSLNVTRAAVWKAIKVLKEEGYNIDGTPNKGYILLGNN
soluble fraction (log2): -1.22

HMITQQEFQQKLEALLSRAEAESFHIKKEEAESFFSGDELTGEQMKLVFDYLLSKKIIVEGYLK
soluble fraction (log2): -0.918

HMHPKDVPTRRELEVLQAVSEGLSTAEIGLRLDITENTVETFRRRLIQKFDAKNAIDLVVKAMAQGWIKV
soluble fraction (log2): -2.23

HMKSPAQAAALKKLWAAIKQNEQGEVVEVLFHNRKLTDAGLVHLKGLANLQTLNLYDTKITGAGLVHL
soluble fraction (log2): -0.0641

HMKPSTETLYATARINVRAAADTSAEKLGSIEMGEAVVRTGTDGDWSIIEYNGSTGYVKSEYLTANAGDAT
soluble fraction (log2): 0.232

HMRFQGKISDWNDEKGYGFVEPNGGGTRAFVHIKSFTDLPRRPINGDIIIYETTTDEKNRVQANNISFTR
soluble fraction (log2): -0.194

HMGRNSTPKEPLKKFEVSPITEKEVRILDGRFGPYITDGATNVTVPKTITIEEITFERALDMLAEKAAKGP
soluble fraction (log2): 0.0521

HMRSASFDIMSQKQSDATLGYERVYDTETNEVYKAYNGFTDDYDGERYKSISDNMYTKGISGYIEK
soluble fraction (log2): 0.39

HMPLTRSDVKRIQLWLMAHGYDIGSPDGVFGDKSNRAANAFLSQQGRSLETVTLGKLYDILEAN
soluble fraction (log2): -2.58

HMKIKAKYTTDFGIRIYAPKPGKNYWRISYVDLDGKLRDTTATSEKTALDKSAEIEVLLRNN
soluble fraction (log2): -2.2

HMHDPRLPLPGTLLAREFQGRDIVVKVLDNGFEFDGRRYKSLSAIAQEVTGSKWNGFLFFGI
soluble fraction (log2): -1.33

HMPPFTYHLERAKRKTVGFIVDERGVTVRAPRWVSVSEIEKMLQTKEAWIQKKLTEFHNWQKE
soluble fraction (log2): -3.39

HMAEKGIGRVNADWLNMRTSPGGEVLTVLKQGTELQVIGRSGSWLEVQHGNEQGYVSSRYITIQP
soluble fraction (log2): -0.356

HMGYDDVIVINGKNETYGFPTKVEDDPVLSLVIKGDRSIDYAEERRLFYVAMTRTKNRVFFVAP
soluble fraction (log2): 0.0548

HMNPTTDFFKLEGIDATRILVFDQVGRQVAQFSQPAQQMDIQALPAGVYALRIENADGQVYSARIVK
soluble fraction (log2): -0.231

HMGNFFDSAILALKNAIQENYGGNVSQAARSLGISVPTLHTWIKGDRKPSLEKLSPILDALNAKIVL
soluble fraction (log2): -1.06

HMQLVGSSAAVLIPAPAGGLGKIRLEFRGQTIDLIAKATDGGALIEGGAVTIVDVRDGQADVSV
soluble fraction (log2): -0.939

HMEKAYVWTDTRTFDVQNYIGKKKSEVKNDQYGFEFLGEGDYVIDQLPRVGEQIEEGQKVKIMLGNQQEI
soluble fraction (log2): 0.178

HMAVNDPDEKFIELGIPADWVQVVRKAGFQTVEALKTVENPNKLHQELSGLNKKMKLGLKTLSQDEVKDWF
soluble fraction (log2): 0.0688

HMSKASLFFLFNHKDELYIVDNNHVQDVPKPRELIRRFSTIEQIREHALHLGLPIANDTARE
soluble fraction (log2): -3.31

HMTPLILTAQEGGERLDAFVASQVEDLTRSAAQRLLEQGAVTSGGKPLKKNAKTTPGMVVEVLLPDPQ
soluble fraction (log2): -0.113

HMSEKYPPIDWNNIKTGQSVLIKDINQVVSLTKLPDSKGFAEVQMGLIKTKIKAEKLAATDKKPNK
soluble fraction (log2): -0.326

HMSPLTPEEAEVLRILGDHGDMTVDNIATEGKMSAAAVLRVLGVLSAYGLAVPSGPGRWGSRAA
soluble fraction (log2): -0.462

HMTKLLITNYERNVLINSYLLKNTPELDDIRRLLVHNKHISENDVSTEMARRIKKHKADWLRVT
soluble fraction (log2): -3.4

HMLETADDAKRFLGAIISEKKAENLLRVYPDIIERIVAGKPVDLSLVKGIKQKTFDKLRQKVISHYSMY
soluble fraction (log2): -0.0346

HMTSMYYLNKAVKEGNAKAIRQLLSAGININVRKRETSTPLDFAIKYKQTEIADLLRKHGGKTAEELKAEE
soluble fraction (log2): -0.668

HMQPPLTPRELGVLQWAAEGKTTRDTSAILQIHQRTVEMHLKSAREKLDALNTTHAVARALAHGFILPPS
soluble fraction (log2): -0.0091

HMEFDYIVKVPDVRNKKIEDAGKILIDLGLKYTTESDYITQDLKVIDQFPLPGTEVSKGSIIDIYLEEDFK
soluble fraction (log2): -0.473

HMRSLAVGNVVSEEGKPSYLLLDSKRTMLFSENSIPSLYLEDGRRVIVNYTLLDEDYQGYDFRIHVNDIDT
soluble fraction (log2): -0.00205

HMAPTPAGNLRSLKSEIVNYTRQSSTAYVYTFKDLSSGELYTARASRYYAAAGDTAYISTAAGAITDM
soluble fraction (log2): 0.121

HMTSKTLSADGGENTRLDKFLSNHLPEISRTKIQKMINDGLVYVNQNYAKASLVLDGTELISYTIPD
soluble fraction (log2): -0.0211

HMGSFISADEALAKALSHAGLDQSAIRELEMDSELDDDVPHYSIDFKSGNLEYEYEISATDGSVLKFEQD
soluble fraction (log2): 0.118

HMRQDEKTLLYWIAGHLKREGRQITERSARHLVEQVGTDMENLSREMEKLIAYTMGRTEITGQDIDDI
soluble fraction (log2): -1.77

HMSGAERAAALLVALGPEVASEIMKFLDDESIQKLASEIAKIEVLSPQEKEDLIGQFLLELKKT
soluble fraction (log2): -0.419

HMNEFSYLSELGSEKGDLIKGLQLVQSREGYVSDDAIRAISKHFSIAEAEVEGVLTFYAQFK
soluble fraction (log2): -1.28

HMKPSVEIKVNGGTGAGVVKKGGSITVTANEPAEGKVFTGWQDESGKIVSTQKEYTFTVAEGTTLTAVYED
soluble fraction (log2): ≥ 1.04

HMIRTGEVVTGKVINVKEDQIILNIGFKSDGIITRNEYTNDNSLDLRTVVHEGDEIEAKVLKVNDGEGQVV
soluble fraction (log2): 0.401

HMKSNIGENIRQLREKREMSVERVARMLEVKPATVIGWESGRELPEPAELGLLAKLFDVTVEELN
soluble fraction (log2): -0.121

HMDKEVLYVTVNDKKVKLDGKNHIFIDIFNYIDFDIKKPNGSIVLKLNGKNAGYMDEIKDGDKIEIYWDK
soluble fraction (log2): -0.535

HMGEDPYQMLGLTRQASDEEVRLAWRKLMRENHPDSLASRGVPQEFVKRATEQVAQINAAWDRIKRERG
soluble fraction (log2): -0.25

HMLKASEVLPYVFTDKFFIDDLNLKQDQILGFLEYIDSKLPSQKLLQVSQQFQLIDFLINESKNYKNQ
soluble fraction (log2): -1.68

HMIIIPKKDYDVSQLDNLVSWLKDRGLEVHISRGENLTVIGLIGDTSKIDIDLIRSLDVVEEVKRIQ
soluble fraction (log2): -0.749

HMQVPDLYRTLGVGRDATTEAIEAAYVGWQARLSAGEPISTQEWERLRYAHEVLSNPQRRSLYDSLVAET
soluble fraction (log2): -0.0937

HMKKLPEKFDYNEISGLRIEAQQKLNEFQPLNIGQASRISGVTPADISVLLVYLEQLKYSNPDLFFKLNPD
soluble fraction (log2): -1.52

HMGSTDTLEDALEAAEKISYPVIIKATAGGGGRGMKVASSLEELKKVYHTTKLEAKNAFGNDQVYIEKYL
soluble fraction (log2): 0.162

HMPVFYATNRQKTTIHNLKRKKGLDDDAYRATIYSFTHGRTDSSKYMYKYEAAELIQKWLDPE
soluble fraction (log2): -1.49

HMTNYREILRLRSLGLNHSRIAESMGISRPTVIAALQRAQTQELNWQAAESLSDIDLAQRLNP
soluble fraction (log2): -0.847

HMDWNPVRDITAHQVLAILQATHIRAPTVAAEAKRTLSSIFQFAVATLRADIDPVWPVRNALPKNKT
soluble fraction (log2): -0.262

HMAEKVIVVADSITVGELAEKLNLPVTNLIGELFKNGIVSTINQRIDFETASIIVEELGLDVELERK
soluble fraction (log2): -0.137

HMQVPVNVSMEILDWVIAHIKIDALPNQIREYLNLWVNGEKEPTFNQVEKVSKATGIPLGYFFLQTPPIED
soluble fraction (log2): -1.79

HMEQVTMSNFLDKWGTSTKSPNAWYTSLSPMQKAEAKLLKEESGLTWNKWYEKNIYVGDGTN
soluble fraction (log2): 0.985

HMSREMIKSELESISGLGKSGIEKLYTHFINIENIKSASLENIRNIPGISYKVADNIYKHFH
soluble fraction (log2): -0.238

HMQPSFFEMIRMVESYIKQHFENVGNEFPEIARAIYYGIEEERNIYGTASREDMEELLDEGIPILPVP
soluble fraction (log2): -0.914

HMNPNFIEVSHGRLRVNVPLSAYEGTTYHIKPEEAEKLKRTLASRYPWLTPNALKVFIEEAEQAMRERIQ
soluble fraction (log2): -0.403

HMKQNSDDGEIRKIIIEILDNNLDNVNKYKSGRTNVLDFFVGQVMKQTRGQANPELTRSILTEELSN
soluble fraction (log2): -0.169

HMVQLAEGERYRRIQEANDFINRQQWPGKAAMGRLKDTEKAQYNLWLDYLDALEAVDTSSAPKINWPVPPE
soluble fraction (log2): 0.2

HMAEAAVELSQQILARLLEAGGSLPLSDKSSPEDIHRLFGVSKRTFKKAIGGLYKKGLILIHPERIELP
soluble fraction (log2): -1.37

HMSGQKDVPDLYGMTVKQAKKEVEAAGFKLKEGKEVYSNDYSKGQIAEQDPESGSKAKKGSSITVHVSKG
soluble fraction (log2): 0.0162

HMLASDYEEELSVLIKMSHKIAAGDDSLMDDFNDRVTMFESSYPINKATKDLTPVLERVNKFQT
soluble fraction (log2): -0.908

HMDGEAQTYVEYGKWFPADLPLEAVRQLADGVPVTKELVAALNPRRSEWEEIKAGLDKIGYPNELL
soluble fraction (log2): -0.0206

HMSFISRMVVAVEDIALSTRPNSTPSGDKYVSKGTVLLMEKRENDWVEVRQPSSPLSGWAPKTSLLSV
soluble fraction (log2): -0.246

HMASFGDLSGLKRTYPPQGLPDASRIADFLIARNEGDLSVEQVKALERFLFEHPDHERTARLVAATRVPA
soluble fraction (log2): -0.0446

HMSYLELENLAEDIKATYDNLSTDLREVFRLSDIEGLSYEEISNKMNIPIGTVRSRLHRARETLLRIFNN
soluble fraction (log2): -1.39

HMIRVGRPQYKRGEFVSFDFDNGRKKTEMYGRVDVIDSYGTFGQGREVSYDIRASDGILYKHIPESSVYGF
soluble fraction (log2): -1.17

HMNKKETRLNNFIHFLKIRNSITVKEMANHLNVSEMTVRRDIKELTADHTINFENGKIMFNPQSSL
soluble fraction (log2): -1.82

HMDDPLSQLTPREREVLELMASGASNQGIADALVITVRAVEKYVSSIFGKLGLPSTGSESRRVLAVLTFLR
soluble fraction (log2): -0.178

HMDHTYKHIELTGSSEKGIEEAVQNALAKASESVQNMRWLEVTDTRGHIEDGRVAHWQVTVKVGFTL
soluble fraction (log2): 0.213

HMAIPEVDPAKQGVSATQLAALDALAHRNAGEGRVAGMVNVVIRNGEIVYYKATGPRHIDGGAPLKSTDLF
soluble fraction (log2): -0.148

HMVEVTTDEITRPGAMVSGSVTFSDGVKAIWLIDEYGRPGLEPETPGYQPSESDLSEFEKHLRALLQ
soluble fraction (log2): 0.362

HMSASSEALKTAVRKVLLNNRMTQDRMARDAGLSGSALSQWLHGKYQGDVPALEGRLAAWLADTQAS
soluble fraction (log2): 0.0606

HMPGLSQAEAQSLLIAYLAQQGRTLELIPLGQSGDVWRFSGRESDGTVVSFFMVSRTDGTISEVPVPP
soluble fraction (log2): -1.06

HMLIDSEILKKTNKITIFLIYAFFSEYLINKEKKKILIGEYIKLSKDFLTIEEVKYFNHLLDDISK
soluble fraction (log2): -0.131

HMFKYRELLDWAKNRFDDLEVSIAPKALALLVESIGTDLRLLDSEIQKLSMYKPLEMISTNDVEDLVA
soluble fraction (log2): -1.01

HMSLIDLLQLNRKSKKLTLMNLVEMTGLSYGKVYRIFNGGIDKPTPDSLKLLAKALQLDYSYLFHKAGYL
soluble fraction (log2): -0.468

HMKTKKYKGVYKDSKGKIYFQIELGVDPITGKRIQKKGRKNQQGLPFNSFKEAYEEILRLKHEFVNSTIN
soluble fraction (log2): -3.35

HMGDEVAVTEILVKVGDTVEADQSLLTVEGDKASMEVPAPFAGVVKAIQVQLGDKVVTGSPIMLFEV
soluble fraction (log2): 0.073

Reference: the domain aggregation screens of Martell et al. (2025)
